# Data published in paper PMC3553987 (Nucleic Acids Research, 2012).
# B1: U-STAT1: unphosphorylated STAT1 (protein, UniProt P42224 2-750, looked up)
# Signal transducer and …: SQWYELQQLDSKFLEQVHQLYDDSFPMEIRQYLAQWLEKQDWEHAANDVSFATIRFHDLLSQLDDQYSRFSLENNFLLQHNIRKSKRNLQDNFQEDPIQMSMIIYSCLKEERKILENAQRFNQAQSGNIQSTVMLDKQKELDSKVRNVKDKVMCIEHEIKSLEDLQDEYDFKCKTLQNREHETNGVAKSDQKQEQLLLKKMYLMLDNKRKEVVHKIIELLNVTELTQNALINDELVEWKRRQQSACIGGPPNACLDQLQNWFTIVAESLQQVRQQLKKLEELEQKYTYEHDPITKNKQVLWDRTFSLFQQLIQSSFVVERQPCMPTHPQRPLVLKTGVQFTVKLRLLVKLQELNYNLKVKVLFDKDVNERNTVKGFRKFNILGTHTKVMNMEESTNGSLAAEFRHLQLKEQKNAGTRTNEGPLIVTEELHSLSFETQLCQPGLVIDLETTSLPVVVISNVSQLPSGWASILWYNMLVAEPRNLSFFLTPPCARWAQLSEVLSWQFSSVTKRGLNVDQLNMLGEKLLGPNASPDGLIPWTRFCKENINDKNFPFWLWIESILELIKKHLLPLWNDGCIMGFISKERERALLKDQQPGTFLLRFSESSREGAITFTWVERSQNGGEPDFHAVEPYTKKELSAVTFPDIIRNYKVMAAENIPENPLKYLYPNIDKDHAFGKYYSRPKEAPEPMELDGPKGTGYIKTELISVSEVHPSRLQTTDNLLPMSPEEFDEVSRIVGSVEFDSMMNTV
# modifications: unphosphorylated
# B2: P-STAT1tc: Phosphorylated truncated STAT1 lacking N-terminal domain and short C-terminal activation domain (amino acids 132-712) (protein, UniProt P42224 132-712, looked up, fragment)
# chain: STVMLDKQKELDSKVRNVKDKVMCIEHEIKSLEDLQDEYDFKCKTLQNREHETNGVAKSDQKQEQLLLKKMYLMLDNKRKEVVHKIIELLNVTELTQNALINDELVEWKRRQQSACIGGPPNACLDQLQNWFTIVAESLQQVRQQLKKLEELEQKYTYEHDPITKNKQVLWDRTFSLFQQLIQSSFVVERQPCMPTHPQRPLVLKTGVQFTVKLRLLVKLQELNYNLKVKVLFDKDVNERNTVKGFRKFNILGTHTKVMNMEESTNGSLAAEFRHLQLKEQKNAGTRTNEGPLIVTEELHSLSFETQLCQPGLVIDLETTSLPVVVISNVSQLPSGWASILWYNMLVAEPRNLSFFLTPPCARWAQLSEVLSWQFSSVTKRGLNVDQLNMLGEKLLGPNASPDGLIPWTRFCKENINDKNFPFWLWIESILELIKKHLLPLWNDGCIMGFISKERERALLKDQQPGTFLLRFSESSREGAITFTWVERSQNGGEPDFHAVEPYTKKELSAVTFPDIIRNYKVMAAENIPENPLKYLYPNIDKDHAFGKYYSRPKEAPEPMELDGPKGTGYIKTELISVSEV
# modifications: phosphorylated
# Legend:
# [1] = system: GAS cognate DNA; experiment: EMSA with P32-labeled cognate DNA; format: binding; conditions: data not shown
# [2] = system: GAS consensus site DNA (TTCnnnGAA); experiment: TIRF-PBM binding of STAT1 proteins to DNA
fold decrease in binding affinity vs P-STAT1 [1],fold impact on affinity compared to P-STAT1 binding ([2]; optimal GAS site DNA),average fold impact on binding compared to P-STAT1 at preferred binding sites ([2]; reduced binding),Molecule
> 200 fold,> 100 fold,,B1
,,2.6 fold,B2
